Numbering of substitutions follows the chain as printed. Each block holds one binder with its values, some of them ahead of it.
Target: T1, Rat ROBO2 on cells (rat, UniProt Q7TPD3 22-1469 (mouse entry))
T1 construct: overexpressed on HEK293 cells in flow cytometry; endogenous on rat SVZ neuronal explants in the SVZa assay
T1 chain: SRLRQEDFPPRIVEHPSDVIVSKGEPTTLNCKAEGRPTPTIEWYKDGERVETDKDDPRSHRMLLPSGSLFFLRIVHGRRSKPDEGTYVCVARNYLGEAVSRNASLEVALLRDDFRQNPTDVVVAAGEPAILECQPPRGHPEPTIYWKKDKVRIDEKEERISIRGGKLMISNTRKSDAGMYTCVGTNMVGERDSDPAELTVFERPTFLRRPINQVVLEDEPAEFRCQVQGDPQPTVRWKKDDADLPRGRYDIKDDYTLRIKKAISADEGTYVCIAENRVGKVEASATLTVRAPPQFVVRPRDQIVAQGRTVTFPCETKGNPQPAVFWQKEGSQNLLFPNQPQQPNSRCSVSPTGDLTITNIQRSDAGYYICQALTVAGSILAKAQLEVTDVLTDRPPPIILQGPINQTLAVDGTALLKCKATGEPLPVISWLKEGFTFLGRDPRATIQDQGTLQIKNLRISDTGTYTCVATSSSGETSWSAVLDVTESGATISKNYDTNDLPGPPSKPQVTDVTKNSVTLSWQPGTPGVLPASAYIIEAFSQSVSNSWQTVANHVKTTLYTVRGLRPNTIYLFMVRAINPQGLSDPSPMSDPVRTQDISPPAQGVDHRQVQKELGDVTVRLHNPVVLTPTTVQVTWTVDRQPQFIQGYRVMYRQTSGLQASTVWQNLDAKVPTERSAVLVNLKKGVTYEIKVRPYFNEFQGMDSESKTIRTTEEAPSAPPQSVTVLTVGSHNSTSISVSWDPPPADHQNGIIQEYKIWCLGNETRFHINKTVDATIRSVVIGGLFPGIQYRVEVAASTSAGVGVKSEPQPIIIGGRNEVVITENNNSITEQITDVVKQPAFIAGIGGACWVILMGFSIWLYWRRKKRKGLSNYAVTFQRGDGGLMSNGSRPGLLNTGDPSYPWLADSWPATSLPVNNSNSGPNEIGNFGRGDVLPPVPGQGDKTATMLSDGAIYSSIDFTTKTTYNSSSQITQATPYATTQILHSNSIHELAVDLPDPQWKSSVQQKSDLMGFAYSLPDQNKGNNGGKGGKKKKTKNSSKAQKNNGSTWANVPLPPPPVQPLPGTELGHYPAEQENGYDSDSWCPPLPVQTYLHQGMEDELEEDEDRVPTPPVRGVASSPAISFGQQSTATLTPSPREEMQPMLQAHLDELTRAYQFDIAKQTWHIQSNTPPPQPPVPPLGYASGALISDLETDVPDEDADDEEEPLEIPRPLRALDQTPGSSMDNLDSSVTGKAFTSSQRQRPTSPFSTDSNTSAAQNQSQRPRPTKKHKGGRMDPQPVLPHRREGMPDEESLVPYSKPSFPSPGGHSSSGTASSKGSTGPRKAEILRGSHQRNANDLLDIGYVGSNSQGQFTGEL
Assay: flow cytometry, HEK293 cells
Method: Using flow cytometry, improvement in the binding EC₅₀ to human ROBO2 relative to the parental 93H2 was evaluated. Starting at 6.7 nM, 11-point, 3-fold dilution series were made for each antibody and used to stain HEK293 overexpressing human ROBO2 as described above for the ROBO2 fold selectivity (Example 2). […] In addition to measuring improved binding to human ROBO2, it was important to ensure that high affinity binding to both cynomolgus monkey ROBO2 and rat ROBO2 was maintained. Using HEK293 cells overexpressing either cynomolgus monkey ROBO2 or rat ROBO2, the relative dose-dependent binding of 93H2, Abcs25 and Abcs35 was evaluated as described above. High affinity binding to both cynomolgus monkey and rat ROBO2 was maintained in Abcs25 and Abcs35 (Table 4). […] Briefly, Abcs35 was immobilized to 300 resonance units (RU) on a CM5 chip. Association of ROBO2 Ig1-Ig2-His (ROBO2) was measured over 5 minutes and dissociation was followed for a period of 10 minutes.
The binding profile of Abcs35-J compared to Abcs35 was determined for human ROBO2, orthologs from cynomolgus monkey and rat, human ROBO1 and specificity for the RSK epitope from ROBO2 but not KSR from ROBO1. Binding was assessed by flow cytometry as described in Examples 2 (homolog specificity), Example 3 (ortholog reactivity) and Example 5 (RSK vs KSR epitope specificity). […] Binding of the antibodies was detected using a secondary fluorochrome conjugated anti-human IgG F(ab′)₂ antibody and samples analyzed on a Fortessa cytometer (BD Biosciences).

B1: Abcs35 (antibody, human IgG1, kappa)
heavy: EVQLVQSGAEVKKPGASVKVSCKASGYTFTGYYMHWVRQAPGQGLEWMGWINPKNGDTEFPQKFQGRVTMTRDTSITTAYMDLSRLRSDDTAVYYCARESGDDAFDIWGQGTMVTVSSASTKGPSVFPLAPSSKSTSGGTAALGCLVKDYFPEPVTVSWNSGALTSGVHTFPAVLQSSGLYSLSSVVTVPSSSLGTQTYICNVNHKPSNTKVDKKVEPKSCDKTHTCPPCPAPEAAGAPSVFLFPPKPKDTLMISRTPEVTCVVVDVSHEDPEVKFNWYVDGVEVHNAKTKPREEQYNSTYRVVSVLTVLHQDWLNGKEYKCKVSNKALPAPIEKTISKAKGQPREPQVYTLPPSREEMTKNQVSLTCLVKGFYPSDIAVEWESNGQPENNYKTTPPVLDSDGSFFLYSKLTVDKSRWQQGNVFSCSVMHEALHNHYTQKSLSLSPGK
light: DIVMTQSPSSLSASVGDRVTITCRASQSISSYLNWYQQKPGKAPKLLIYAASSLQSGVPSRFSGSGSGTDFTLTISSLQPEDFATYYCQQSVGLFFGGGTKVEIKRTVAAPSVFIFPPSDEQLKSGTASVVCLLNNFYPREAKVQWKVDNALQSGNSQESVTEQDSKDSTYSLSSTLTLSKADYEKHKVYACEVTHQGLSSPVTKSFNRGEC
notes: fully human IgG1; VH of Ab96 with VL of Ab123
EC50: 0.026 nM

EC50: 0.026 nM
B2: Abcs35-J (antibody, human IgG1, kappa)
heavy: B1 heavy with D82E
light: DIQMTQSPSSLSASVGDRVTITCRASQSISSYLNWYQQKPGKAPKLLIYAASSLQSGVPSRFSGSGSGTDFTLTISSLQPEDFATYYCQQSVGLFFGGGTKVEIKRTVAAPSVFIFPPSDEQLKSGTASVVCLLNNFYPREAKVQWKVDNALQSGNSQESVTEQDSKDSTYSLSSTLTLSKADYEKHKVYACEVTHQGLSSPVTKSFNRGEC
notes: germlined variant of Abcs35; also called ABCS-J

— US20200157212A1 (Pfizer, published 2020)
